One data set concerns O35161. The experiment in a line: SEC-MALS. (SEC sorts molecules by how far they enter the pores of the column.)
Data set [1] deals with CELSR1 extracellular region, CADH1 through GAIN domains (residues 255-2477) (mouse) (UniProt O35161). In words: SEC-MALS.

As to “CELSR1 extracellular region, CADH1 through GAIN domains (residues 255-2477)”, the “percent dimer in the main peak” value in the data set on O35161 is recorded as “roughly 60% dimer”.

With “CELSR1 extracellular region, CADH1 through GAIN domains (residues 255-2477), O35161 255-2477”, the stoichiometry N – broadly, the number of molecules, sites or subunits per partner or assembly – in data set [1] amounted to 2.

Values taken from PMC12038025.
